From PMC4801511

B1: RPAP2_32–345 (Homo sapiens) (protein)
chain: LKQEDASKRKAELEAAVRKKIEFERKALHIVEQLLEENITEEFLMECGRFITPAHYSDVVDERSIVKLCGYPLCQKKLGIVPKQKYKISTKTNKVYDITERKSFCSNFCYQASKFFEAQIPKTPVWVREEERHPDFQLLKEEQSGHSGEEVQLCSKAIKTSDIDNPSHFEKQYESSSSSTHSDSSSDNEQDFVSSILPGNRPNSTNIRPQLHQKSIMKKKAGHKANSKHKDKEQTVVDVTEQLGDCKLDSQEKDATCELPLQKVNTQSSSNSTLPERLKASENSESEYSRSEITLVGISKKSAEHFKRKFAKSN
B2: RPAP2_32–274 (Homo sapiens) (protein)
chain: LKQEDASKRKAELEAAVRKKIEFERKALHIVEQLLEENITEEFLMECGRFITPAHYSDVVDERSIVKLCGYPLCQKKLGIVPKQKYKISTKTNKVYDITERKSFCSNFCYQASKFFEAQIPKTPVWVREEERHPDFQLLKEEQSGHSGEEVQLCSKAIKTSDIDNPSHFEKQYESSSSSTHSDSSSDNEQDFVSSILPGNRPNSTNIRPQLHQKSIMKKKAGHKANSKHKDKEQTVVDVTEQL

Substrate: Cc1cc(=O)oc2c(F)c(OP(=O)(O)O)c(F)cc12
Assay: DiFMUP fluorescence phosphatase assay, Michaelis-Menten fit
Type: biochemical, Homo sapiens
Conditions: 20 mM tris-acetate pH 6.0, 150 mM NaCl, BSA 0.1 mg/ml

Protein | Km [µM] | kcat/Km [M⁻¹ s⁻¹]
B1 | 34.20 ± 0.84 | 333000
B2 | 30.95 ± 1.75 | 833000
